This note sets out measurements from PMC3127458 (Biochemistry, 2010).

This data set deals with the molecule itself. Kind of data set: SEC.

B1: AppA Q63E full-length (natural protein, Rhodobacter sphaeroides, UniProt Q53119 1-450, looked up)
chain: MQHDLEADVTMTGSDLVSCCYRSLAAPDLTLRDLLDIVETSQAHNARAQLTGALFYSQGVFFEWLEGRPAAVAEVMTHIQRDRRHSNVEILAEEPIAKRRFAGWHMQLSCSEADMRSLGLAESRQIVTVGRSLVADNTNIFSFDRIAAVRRFLSDVCAARTLAPDTPVEADTFALYALTEAQAGRSGRAKAVARLSDLLSTDPLGRLTEVEELLRAHAPTAADFARLFEACAERLTRALAEDRISRMQVTLAYSALQMALRRIHHLPDPQKSVGAVLVAGVPGHKPILEAALAAEMLRAVGWSTSVVHPESVAALAARLKTSRTSTLVVAPSLLEGTEQEADTLRFVSALRARTDLPGLSILVGGRLAQLPPSKLKDSGADAGFAHLALLPAALARVACPANADCCSMRACRMPASQCCDKRINPEFLLANVMPSVLTRISSRQDRRRSA
Consider B1, for which the “stoichiometry N” value is 2.

B2: AppA Q63L full-length (natural protein, Rhodobacter sphaeroides, UniProt Q53119 1-450, looked up)
chain: MQHDLEADVTMTGSDLVSCCYRSLAAPDLTLRDLLDIVETSQAHNARAQLTGALFYSQGVFFLWLEGRPAAVAEVMTHIQRDRRHSNVEILAEEPIAKRRFAGWHMQLSCSEADMRSLGLAESRQIVTVGRSLVADNTNIFSFDRIAAVRRFLSDVCAARTLAPDTPVEADTFALYALTEAQAGRSGRAKAVARLSDLLSTDPLGRLTEVEELLRAHAPTAADFARLFEACAERLTRALAEDRISRMQVTLAYSALQMALRRIHHLPDPQKSVGAVLVAGVPGHKPILEAALAAEMLRAVGWSTSVVHPESVAALAARLKTSRTSTLVVAPSLLEGTEQEADTLRFVSALRARTDLPGLSILVGGRLAQLPPSKLKDSGADAGFAHLALLPAALARVACPANADCCSMRACRMPASQCCDKRINPEFLLANVMPSVLTRISSRQDRRRSA
For the protein B2, the “stoichiometry N” value amounted to 2.
